Ends that are not written are not given here.
B1: JNK1 (as used in the fluorescence polarization titrations) (enzyme)
chain: MSRSKRDNNFYSVEIGDSTFTVLKRYQNLKPIGSGAQGIVCAAYDAILERNVAIKKLSRPFQNQTHAKRAYRELVLMKCVNHKNIIGLLNVFTPQKSLEEFQDVYIVMELMDANLCQVIQMELDHERMSYLLYQMLCGIKHLHSAGIIHRDLKPSNIVVKSDCTLKILDFGLARTAGTSFMMTPYVVTRYYRAPEVILGMGYKENVDLWSVGCIMGEMVCHKILFPGRDYIDQWNKVIEQLGTPCPEFMKKLQPTVRTYVENRPKYAGYSFEKLFPDVLFPADSEHNKLKASQARDLLSKMLVIDASKRISVDEALQHPYINVWYDPSEAEAPPPKIPDKQLDEREHTIEEWKELIYKEVMDLEERTKNGVIRGQPSPLGAAVINGSQHPSSSSSVNDVSSMSTDPTLASDTDSSLEAAAGPLGCCR

Columns and labels:
Assay in all cases: FP
[1] = target: ERK2 (as used in the fluorescence polarization titrations) (human, UniProt P28482 1-360)
[2] = target: p38α (as used in the fluorescence polarization titrations) (human, UniProt Q16539 1-360)
[3] = target: B1
GAB3+ peptide = target: GAB3+ peptide

Kd [1]	Kd [2]	Kd [3]	Kd (GAB3+ peptide)	Binder
17.5 µM	8.2 µM	–	–	KRRSLRVHIP (not fully specified) [AAKG2 peptide]
31.8 µM	–	5.1 µM	–	RPKSLQL (not fully specified) [DOCK5 peptide]
–	–	–	13.2 µM	B1
22.6 µM	5.2 µM	14.5 µM	–	RHRDKRLSLNLP (not fully specified) [GAB3 peptide]
13.5 µM	4.9 µM	24.7 µM	–	KKKSKPLNLKIH (not fully specified) [KSR2 peptide]
51.2 µM	–	7.3 µM	–	RPASLNL (not fully specified) [DOCK7 peptide]
–	1.2 µM	–	–	LQRKKPPWLKLDIP (not fully specified) [RHDF1 peptide]
–	–	16.4 µM	–	RPTTLPL (not fully specified) [PDE4B peptide]
–	74.6 µM	3.5 µM	–	RPTRLSL (not fully specified) [IRS1 peptide]
–	29.5 µM	16.7 µM	–	RKHKDLYLPL (not fully specified) [DCX peptide]
84.7 µM	–	19.3 µM	–	RPQDLNL (not fully specified) [MKP5 peptide]
14.4 µM	24.5 µM	–	–	KEKSGSLKLRIP (not fully specified) [CCNT2 peptide]
–	–	10.8 µM	–	RPKSLNL (not fully specified) [APBA2 peptide]
15 µM	8.9 µM	–	–	KKIQPKLSLT (not fully specified) [JAZF1 peptide]
–	–	15.9 µM	–	RPTSLAL (not fully specified) [MYO9B peptide]
–	–	21.1 µM	–	DPLHPTL (also: non-native Glu flanks added at both ends, number not given here) [ATF7 peptide]
